T1: human CD39 (Accession No. NM_001776.6) expressed on cells (human, UniProt P49961 1-510)
T1 construct: whole, on cells; On Jurkat, 293T or SK-MEL28 cells; also called Jurkat/CD39; 293T/CD39
T1 sequence (looked up): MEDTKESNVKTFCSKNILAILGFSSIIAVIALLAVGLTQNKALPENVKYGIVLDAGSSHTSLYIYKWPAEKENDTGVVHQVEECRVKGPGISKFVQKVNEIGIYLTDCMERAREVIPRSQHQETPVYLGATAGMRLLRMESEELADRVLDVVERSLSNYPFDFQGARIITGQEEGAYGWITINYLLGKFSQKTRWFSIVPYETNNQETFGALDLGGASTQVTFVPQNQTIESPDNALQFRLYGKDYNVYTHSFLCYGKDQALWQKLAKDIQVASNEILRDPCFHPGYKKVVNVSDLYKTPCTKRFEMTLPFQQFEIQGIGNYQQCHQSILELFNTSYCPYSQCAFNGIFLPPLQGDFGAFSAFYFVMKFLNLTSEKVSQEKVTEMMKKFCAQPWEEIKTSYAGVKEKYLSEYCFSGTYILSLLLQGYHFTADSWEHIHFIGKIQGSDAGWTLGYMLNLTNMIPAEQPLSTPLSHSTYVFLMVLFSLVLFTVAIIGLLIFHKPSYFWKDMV

T2: recombinant human CD39 (in-house product, 38 to 478 aa of Accession No. NM_001776.6) (human, UniProt P49961 38-478)
T2 construct: also called rhCD39; human CD39-ECD; not shown: Myc and His tags at the C-terminus are named only for the PE-lab
T2 sequence (looked up): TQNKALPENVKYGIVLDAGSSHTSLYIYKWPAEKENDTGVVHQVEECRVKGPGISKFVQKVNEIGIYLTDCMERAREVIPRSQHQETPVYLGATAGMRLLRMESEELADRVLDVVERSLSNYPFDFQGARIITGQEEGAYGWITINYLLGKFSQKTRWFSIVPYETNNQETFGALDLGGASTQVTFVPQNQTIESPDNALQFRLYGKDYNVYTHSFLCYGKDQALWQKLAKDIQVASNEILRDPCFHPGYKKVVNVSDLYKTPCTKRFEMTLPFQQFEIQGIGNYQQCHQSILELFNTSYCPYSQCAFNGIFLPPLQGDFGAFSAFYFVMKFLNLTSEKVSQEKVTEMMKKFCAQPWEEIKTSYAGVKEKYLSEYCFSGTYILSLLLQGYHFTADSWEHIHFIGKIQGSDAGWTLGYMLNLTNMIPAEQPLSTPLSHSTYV


Experiments:
[1] = molecular target: T3, biotinylated human TIM-3-Fc antigen (in-house product, SEQ ID No: 118) (human, biotinylated); test: competition ELISA: human Galectin-9 coated, biotinylated human TIM-3-Fc pre-mixed with the antibody dilution series, Streptavidin-HRP, A450; blocked ligand: human Galectin-9
[2] = molecular target: T1, human CD39 (Accession No. NM_001776.6) …; test: flow cytometry, Jurkat/CD39 cells, KD from MFI
[3] = molecular target: T2, recombinant human CD39 (in-house …); test: SPR Biacore8K, antibody captured on anti-human IgG, antigen as analyte
[4] = molecular target: T3, biotinylated human TIM-3-Fc antigen …; test: flow cytometry, inhibition of biotinylated TIM-3-Fc binding to phosphatidylserine on apoptotic Jurkat cells
[5] = molecular target: T4, human TIM-3 (Accession No. JX049979.1) stably expressed on cells (human, UniProt Q8TDQ0 22-301); test: flow cytometry, Jurkat/TIM-3 cells, KD from MFI
T4 construct: whole, on cells; On Jurkat or 293T cells; also called Jurkat/TIM-3; 293T/TIM-3

[6] = molecular target: T1, human CD39 (Accession No. NM_001776.6) …; test: flow cytometry, 293T/TIM-3 + CD39 cells, KD from MFI
[7] = molecular target: T1, human CD39 (Accession No. NM_001776.6) …; test: flow cytometry, 293T/CD39 cells, KD from MFI
[8] = molecular target: T1, human CD39 (Accession No. NM_001776.6) …; test: flow cytometry, Jurkat/TIM-3 + CD39 cells, KD from MFI

Binder	IC50 (read off the curve) [1] [nM]	Kd [2] [nM]	Kd [3] [nM]	IC50 [4] [nM]	Kd [5] [nM]	Kd [6] [nM]	koff [3] [s⁻¹]	kon [3] [M⁻¹ s⁻¹]	Kd [7] [nM]	Kd [8] [nM]
T86_Hu003_Ct (bispecific antibody) chain 1: QIQLVQSGPELKKPGETVKISCEASGYTFINYGMNWVKQAPGKGLKWMGWINTYTGEPTYADDFKGRFAFSLETSANTAYLQINNLKNEDTATYFCARKGYYGYPNYYAMDYWGQGTSVTVSSGGGGSGGGGSGGGGSGGGGSDIVMTQSQKFMSTSVGDRVSITCKASQNVGTAVAWYQQKPGQSPKLLIYSASNRYTGVPDRFTGSGSGTDFTLTISNMQSEDLADYFCQQYSSYPITFGTGTKLEIK chain 2: QVQLQESGGGLVKPGGSLKLSCAASGFTFSSYYMSWVRQTPDKRLEWVATISNSGGSTYYPDSVKDRFTISRDNAKNTLYLQMSSLKSEDTAMYYCARDPYYTNYVPMDYWGQGTMVTVSSGGGGSGGGGSGGGGSGGGGSDIVMTQSPSFLSASVGDRVTITCKASQYVDTYVAWYQQRPGKAPKPLIYSASTRHTGVPSRFSGSGSGTEFTLTISSLQPEDFATYFCAQYSSSPLTFGGGTKLELK	~2	18.8	1.74	30.8	2.77					
I67_Hu003_Ct (bispecific antibody) chain 1: DVQLQESGPSLVQPSQSLSINCTVSGFSLSSYGVHWVRQSPGKGLEWLGVIWRRGSTDYNAAFMSRLSITKDNSKSQVFFKMNRLQADDTATYYCAKGISTATSWFAYWGQGTLVTVSAGGGGSGGGGSGGGGSGGGGSDIVMTQSHKFMSTSVGDRVSVTCKASQNVGTNVAWYQQKPGQSPKALIYSASYRYSGVPDRFTGSGSGTDFTLTISNVQSEDLAEYFCQQYNSYPLTFGAGTKLELK chain 2: QVQLQESGGGLVKPGGSLKLSCAASGFTFSSYYMSWVRQTPDKRLEWVATISNSGGSTYYPDSVKDRFTISRDNAKNTLYLQMSSLKSEDTAMYYCARDPYYTNYVPMDYWGQGTMVTVSSGGGGSGGGGSGGGGSGGGGSDIVMTQSPSFLSASVGDRVTITCKASQYVDTYVAWYQQRPGKAPKPLIYSASTRHTGVPSRFSGSGSGTEFTLTISSLQPEDFATYFCAQYSSSPLTFGGGTKLELK	~2	14.1	1.63	27.2	1.86					
mAnE67_Hu003_Ct (bispecific antibody) chain 1: EVQLVESGGGLVKPGGSRKLSCAASGFTFSDYGMHWVRQAPEKGLEWVAYISSGSSIIYYADTVKGRFTISRDNAKNTLFLQMTGLRSEDTAMYYCARKDYPYAMDYWGQGTSLAVSSGGGGSGGGGSGGGGSGGGGSSIVMTQTPKFMSTSVGDRVSVTCKASQNVGTNVAWYQQKPGQSPKALIYWASNRFTGVPDRFTGSGSGTDFTLTISNVQSEDLADYFCQQYSSSPYTFGSGTKLEIK chain 2: QVQLQESGGGLVKPGGSLKLSCAASGFTFSSYYMSWVRQTPDKRLEWVATISNSGGSTYYPDSVKDRFTISRDNAKNTLYLQMSSLKSEDTAMYYCARDPYYTNYVPMDYWGQGTMVTVSSGGGGSGGGGSGGGGSGGGGSDIVMTQSPSFLSASVGDRVTITCKASQYVDTYVAWYQQRPGKAPKPLIYSASTRHTGVPSRFSGSGSGTEFTLTISSLQPEDFATYFCAQYSSSPLTFGGGTKLELK		2.69	2.26	24.7	1.49					
6-3hIG_Hu003_Ct (bispecific antibody) chain 1: QVQLVQSGAELVKPGASVKLSCKASGFSIKDTYVHWVKQAPGKGLEWIGKIDPANVNTKFDPKFQGRVTITADTSTNTAYLQLSSLRSEDTAVYYCALYGYDDDAYYFDYWGQGTLVTVSSGGGGSGGGGSGGGGSGGGGSEIVLTQSPASLSVSPGERATISCRASESVDNYGISFMNWFQQKPGQAPKLLIYAASNQGSGVPARFSGSGSGTDFTLTISSLEPEDFAVYYCQQSKEVPYTFGQGTKLEIK chain 2: QVQLQESGGGLVKPGGSLKLSCAASGFTFSSYYMSWVRQTPDKRLEWVATISNSGGSTYYPDSVKDRFTISRDNAKNTLYLQMSSLKSEDTAMYYCARDPYYTNYVPMDYWGQGTMVTVSSGGGGSGGGGSGGGGSGGGGSDIVMTQSPSFLSASVGDRVTITCKASQYVDTYVAWYQQRPGKAPKPLIYSASTRHTGVPSRFSGSGSGTEFTLTISSLQPEDFATYFCAQYSSSPLTFGGGTKLELK	~2	237	0.355	16.1	1.92					
I67_sc (antibody, scFv-Fc homodimer, anti-CD39 (mouse variable regions); also called scFv-Fc homodimeric antibody of anti-CD39_scFv antibody I67; not shown: linker and Fc-LALA (human IgG1 Fc with L234A and L235A)) scFv: DVQLQESGPSLVQPSQSLSINCTVSGFSLSSYGVHWVRQSPGKGLEWLGVIWRRGSTDYNAAFMSRLSITKDNSKSQVFFKMNRLQADDTATYYCAKGISTATSWFAYWGQGTLVTVSAGGGGSGGGGSGGGGSGGGGSDIVMTQSHKFMSTSVGDRVSVTCKASQNVGTNVAWYQQKPGQSPKALIYSASYRYSGVPDRFTGSGSGTDFTLTISNVQSEDLAEYFCQQYNSYPLTFGAGTKLELK		0.329	1.65			6.8	0.00294	1.78e+06	2.37	0.208
Tre_291_sc (antibody, scFv-Fc homodimer, anti-CD39 (mouse variable regions); not shown: linker and Fc-LALA (human IgG1 Fc with L234A and L235A)) scFv: QVQLKQSGPGLVQPSQSLSITCTVSGFSLTSYGVHWVRQSPGKGLEWLGVIWRRGSTDYNAAFMSRLSITKDTSKSQVFFKMNSLQTDDTAIYYCAGVRGDAMDYWGQGTSVTVSSGGGGSGGGGSGGGGSGGGGSDIVMTQSHKSMSTSVGDRVSVTCKASQNVGTNVAWYQQKPGQSPKALIYSASYRYSGVPDRFTGSGSGTDFTLTISNVQSEDLAEYFCQQYNSYPLTFGGGTKLEIK		0.8	2.22			7.15	0.0031	1.4e+06	2.43	0.922

Further binders by falling Kd [2], results first:

IC50 (read off the curve) [1] [nM]	Kd [2] [nM]	Kd [3] [nM]	IC50 [4] [nM]	Kd [5] [nM]	Kd [6] [nM]	koff [3] [s⁻¹]	kon [3] [M⁻¹ s⁻¹]	Kd [7] [nM]	Kd [8] [nM]	Binder
~1	22.6	2.79	28.3	2.13						Tre291_Hu003_Ct (bispecific antibody) chain 1: QVQLKQSGPGLVQPSQSLSITCTVSGFSLTSYGVHWVRQSPGKGLEWLGVIWRRGSTDYNAAFMSRLSITKDTSKSQVFFKMNSLQTDDTAIYYCAGVRGDAMDYWGQGTSVTVSSGGGGSGGGGSGGGGSGGGGSDIVMTQSHKSMSTSVGDRVSVTCKASQNVGTNVAWYQQKPGQSPKALIYSASYRYSGVPDRFTGSGSGTDFTLTISNVQSEDLAEYFCQQYNSYPLTFGGGTKLEIK chain 2: QVQLQESGGGLVKPGGSLKLSCAASGFTFSSYYMSWVRQTPDKRLEWVATISNSGGSTYYPDSVKDRFTISRDNAKNTLYLQMSSLKSEDTAMYYCARDPYYTNYVPMDYWGQGTMVTVSSGGGGSGGGGSGGGGSGGGGSDIVMTQSPSFLSASVGDRVTITCKASQYVDTYVAWYQQRPGKAPKPLIYSASTRHTGVPSRFSGSGSGTEFTLTISSLQPEDFATYFCAQYSSSPLTFGGGTKLELK
	2.18	4.28			16.9	0.000823	192000	3.56	2.25	T86_sc (antibody, scFv-Fc homodimer, anti-CD39 (mouse variable regions); also called scFv-Fc homodimeric antibody of anti-CD39_scFv antibody T86; not shown: linker and Fc-LALA (human IgG1 Fc with L234A and L235A)) scFv: QIQLVQSGPELKKPGETVKISCEASGYTFINYGMNWVKQAPGKGLKWMGWINTYTGEPTYADDFKGRFAFSLETSANTAYLQINNLKNEDTATYFCARKGYYGYPNYYAMDYWGQGTSVTVSSGGGGSGGGGSGGGGSGGGGSDIVMTQSQKFMSTSVGDRVSITCKASQNVGTAVAWYQQKPGQSPKLLIYSASNRYTGVPDRFTGSGSGTDFTLTISNMQSEDLADYFCQQYSSYPITFGTGTKLEIK
	0.334	4.75			5.5	0.00187	393000	2.19	0.343	mAnE67_sc (antibody, scFv-Fc homodimer, anti-CD39 (mouse variable regions); also called scFv-Fc homodimeric antibody of anti-CD39_scFv antibody mAnE67; not shown: linker and Fc-LALA (human IgG1 Fc with L234A and L235A)) scFv: EVQLVESGGGLVKPGGSRKLSCAASGFTFSDYGMHWVRQAPEKGLEWVAYISSGSSIIYYADTVKGRFTISRDNAKNTLFLQMTGLRSEDTAMYYCARKDYPYAMDYWGQGTSLAVSSGGGGSGGGGSGGGGSGGGGSSIVMTQTPKFMSTSVGDRVSVTCKASQNVGTNVAWYQQKPGQSPKALIYWASNRFTGVPDRFTGSGSGTDFTLTISNVQSEDLADYFCQQYSSSPYTFGSGTKLEIK

— patent US20260085127A1 (BRIGHTPATH BIOTHERAPEUTICS, published 2026)
